Source: patent publication US20150197796, “SSB METHOD” (OXFORD NANOPORE TECHNOLOGIES LIMITED, published 2015)

Biological target: EcoSSB-Q152del (C-terminal truncated SSB) (Escherichia coli, UniProt P0AGE0 SEQ:1-152)
Experiment: EMSA; complex formation not impaired vs WT; 5% TBE gel
Conditions: tags: N-terminal His6-TEV site removed; chain copies: 4 inferred

B1: 70mer polyT (ssDNA)
DNA: TTTTTTTTTTTTTTTTTTTTTTTTTTTTTTTTTTTTTTTTTTTTTTTTTTTTTTTTTTTTTTTTTTTTTT
Does B1 bind?
Result: binds
